Measurements published in patent US20260234255A1 (Genmab, published 2026).
Numbering of substitutions follows the chain as printed.

How the values were obtained:
[1] = target: T1, human CD30 (human, UniProt P28908 19-595); test: flow cytometry, SU-DHL-1 cells
T1 construct: also called huCD30; TNFRSF8
T1 sequence: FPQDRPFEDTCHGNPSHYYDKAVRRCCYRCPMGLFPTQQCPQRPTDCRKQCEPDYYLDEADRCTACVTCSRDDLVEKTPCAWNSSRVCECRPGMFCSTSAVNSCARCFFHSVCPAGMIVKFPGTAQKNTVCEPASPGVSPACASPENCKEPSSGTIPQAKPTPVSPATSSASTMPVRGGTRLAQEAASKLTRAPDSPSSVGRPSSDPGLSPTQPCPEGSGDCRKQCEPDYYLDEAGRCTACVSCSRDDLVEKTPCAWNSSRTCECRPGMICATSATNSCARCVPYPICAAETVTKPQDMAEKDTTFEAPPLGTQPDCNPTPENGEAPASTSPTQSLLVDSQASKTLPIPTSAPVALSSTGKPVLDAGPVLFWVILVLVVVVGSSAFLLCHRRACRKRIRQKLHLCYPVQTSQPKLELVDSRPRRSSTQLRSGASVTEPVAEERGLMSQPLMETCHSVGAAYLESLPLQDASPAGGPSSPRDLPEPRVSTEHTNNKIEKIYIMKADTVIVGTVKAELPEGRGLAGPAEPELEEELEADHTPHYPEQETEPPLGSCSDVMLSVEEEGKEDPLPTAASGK
Protocol: (§1) Binding of CD3×CD30 bispecific antibodies to two CD30-expressing human tumor cell lines SU-DHL-1 (ALCL; ATCC, cat. no. ACC 356) and HDLM-2 (HL; ATCC, cat. no. CRL-2965) was analyzed […] by flow cytometry.
(§2) Cells (3×10⁴ cells/well) were incubated in polystyrene 96-well round-bottom plates (Greiner bio-one, cat. no. 650180) with serial dilutions of antibodies (range 0.0046 to 10 μg/mL in 3-fold dilution steps) in 50 μL staining buffer at 4° C. for 30 min. After washing twice in staining buffer, cells were incubated with 50 μL secondary antibody at 4° C. for 30 min. […] Next, cells were washed twice in staining buffer, resuspended in 100 μL staining buffer supplemented with TO-PRO-3 iodide (Thermo Fisher Scientific; cat. no. T3605; 1:8000 dilution) and analyzed on a FACSCelesta flow cytometer (BD Biosciences, USA). Live cells were gated based on FSC/SSC and absence of TOPRO-3 staining. Binding curves were analyzed by non-linear regression of log-transformed data (sigmoidal dose-response with variable slope, four parameters) using GraphPad Prism V7.02 software (GraphPad Software, San Diego, CA, USA).

[2] = target: T2, rhesus monkey (Macaca mulatta) CD30 (rhesus monkey, UniProt P28908 19-595 (human entry)); test: flow cytometry, Expi293F cells transfected with rhesus monkey CD30
T2 construct: also called mmCD30
T2 chain: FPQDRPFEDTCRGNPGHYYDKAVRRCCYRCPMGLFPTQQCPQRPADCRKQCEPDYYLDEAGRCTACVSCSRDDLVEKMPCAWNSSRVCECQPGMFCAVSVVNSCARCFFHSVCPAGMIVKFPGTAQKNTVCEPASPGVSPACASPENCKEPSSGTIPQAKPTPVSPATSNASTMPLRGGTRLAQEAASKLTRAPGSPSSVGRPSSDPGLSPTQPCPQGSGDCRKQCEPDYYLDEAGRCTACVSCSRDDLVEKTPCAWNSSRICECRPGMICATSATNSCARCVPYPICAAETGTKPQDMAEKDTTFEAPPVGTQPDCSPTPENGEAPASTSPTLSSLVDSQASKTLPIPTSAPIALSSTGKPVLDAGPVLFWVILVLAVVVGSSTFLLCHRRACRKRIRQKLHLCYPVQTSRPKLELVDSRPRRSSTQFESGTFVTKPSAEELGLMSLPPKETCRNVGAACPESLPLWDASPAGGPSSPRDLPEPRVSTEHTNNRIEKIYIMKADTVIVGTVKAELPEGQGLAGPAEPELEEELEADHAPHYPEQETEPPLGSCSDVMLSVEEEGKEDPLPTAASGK
Protocol: Cells (3×10⁴ cells/well) were incubated in polystyrene 96-well round-bottom plates (Greiner bio-one, cat. no. 650180) with serial dilutions of antibodies (ranging from 0.005 to 10 μg/mL in 3-fold dilution steps) in 100 μL staining buffer at 4° C. for 30 min. Experiments were performed in technical duplicate. After washing twice in staining buffer, cells were incubated in 50 μL secondary antibody at 4° C. for 30 min. As a secondary antibody, R-PE-conjugated goat-anti-human IgG (Jackson ImmunoResearch, UK; cat. no. 109⁻¹¹⁶-098) diluted 1:400 in staining buffer was used. Cells were washed twice in staining buffer, resuspended in 30 μL staining buffer containing 0.4% EDTA and analyzed on an iQue Screener (Intellicyt Corporation, USA). Binding curves were analyzed using non-linear regression (sigmoidal dose-response with variable slope) using GraphPad Prism V9.0.0 software (GraphPad Software, San Diego, CA, USA).

[3] = target: T1, human CD30; test: flow cytometry, HDLM-2 cells
Protocol: as §1, §2

[4] = target: T1, human CD30; test: cell-based or functional assay
[5] = target: T3, cynomolgus monkey CD3 (cynomolgus monkey, UniProt Q95LI5 22-198); test: flow cytometry, cynomolgus monkey T cells (PBMCs)
T3 construct: CD3 endogenously expressed on T cells within cynomolgus monkey PBMCs
Protocol: Cynomolgus monkey PBMCs (Tebu-Bio, The Netherlands; cat. no. PBMCMFA-10) or purified human T cells were plated in polystyrene 96-well round-bottom plates. T cells were derived from human donor buffy coats (Sanquin, Amsterdam, The Netherlands) and isolated using the RosetteSep human T cell enrichment cocktail (Stemcell Technologies, France, cat. no. 15061) according to manufacturer's instructions. […] After washing twice in staining buffer, cells were incubated in 50 μL secondary R-PE-conjugated goat-anti-human IgG antibody at 4° C. for 30 min (1:400 dilution). After washing twice in staining buffer, T cells were stained for T-cell markers CD3 (1:100; Miltenyi biotec, clone 10D12, conjugated to APC), CD4 (1:50; eBioscience, clone OKT4, conjugated to APC-Cy7), CD8 (1:100; Biolegend, clone RPA-T8, conjugated to AF700) and T-cell activation markers CD69 (1:50; BD Biosciences, clone AB2439, conjugated to FITC), CD25 (1:50; eBioscience, clone BC96, conjugated to PE-Cy7) and CD279/PD1 (1:50; BD Biosciences, clone AEH12.2H7, conjugated to BV605). Single stained samples with Ultracomp beads (5 μL; Invitrogen, cat. no. 01-2222-42) were used for compensation adjustments of the flow cytometer. After 30 min of incubation at 4° C., cells were washed twice with staining buffer, resuspended in 100 μL staining buffer and analyzed using a FACS Fortessa (BD Biosciences). Data were processed using FlowJo (BD Biosciences).

T3 sequence (Q95LI5 22-198): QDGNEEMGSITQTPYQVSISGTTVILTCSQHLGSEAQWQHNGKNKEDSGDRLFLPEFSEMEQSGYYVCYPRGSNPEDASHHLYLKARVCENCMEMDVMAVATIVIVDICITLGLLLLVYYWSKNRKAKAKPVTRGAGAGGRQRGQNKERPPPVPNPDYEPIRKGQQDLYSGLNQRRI

B1: bsG1-huCD3-FEALxCD30-HRS-3-FEAR (bispecific antibody, human IgG1, kappa, lambda)
heavy 1: not shown
light 1: not shown
heavy 2: QVQLQQSGAELARPGASVKMSCKASGYTFTTYTIHWVRQRPGHDLEWIGYINPSSGYSDYNQNFKGKTTLTADKSSNTAYMQLNSLTSEDSAVYYCARRADYGNYEYTWFAYWGQGTTVTVSSASTKGPSVFPLAPSSKSTSGGTAALGCLVKDYFPEPVTVSWNSGALTSGVHTFPAVLQSSGLYSLSSVVTVPSSSLGTQTYICNVNHKPSNTKVDKRVEPKSCDKTHTCPPCPAPEFEGGPSVFLFPPKPKDTLMISRTPEVTCVVVAVSHEDPEVKFNWYVDGVEVHNAKTKPREEQYNSTYRVVSVLTVLHQDWLNGKEYKCKVSNKALPAPIEKTISKAKGQPREPQVYTLPPSREEMTKNQVSLTCLVKGFYPSDIAVEWESNGQPENNYKTTPPVLDSDGSFFLYSRLTVDKSRWQQGNVFSCSVMHEALHNHYTQKSLSLSPG
light 2: DIVMTQSPKFMSTSVGDRVTVTCKASQNVGTNVAWFQQKPGQSPKVLIYSASYRYSGVPDRFTGSGSGTDFTLTISNVQSEDLAEYFCQQYHTYPLTFGGGTKLEINRTVAAPSVFIFPPSDEQLKSGTASVVCLLNNFYPREAKVQWKVDNALQSGNSQESVTEQDSKDSTYSLSSTLTLSKADYEKHKVYACEVTHQGLSSPVTKSFNRGEC
notes: Bispecific IgG1 made by controlled Fab-arm exchange
In the case of B1, the “EC50 (read off the curve)” value [1] is reported as about 0.2 µg/mL, the “EC50 (read off the curve)” value [2] is reported as about 0.3 µg/mL and the “EC50 (read off the curve)” value [3] is reported as about 0.1 µg/mL. For the same binder, the “T-cell mediated cytotoxicity of Karpas-299 cells, IC50 average” value [4] was 0.068 µg/mL and the “T-cell mediated cytotoxicity of Karpas-299 cells, maximum lysis average” value [4] was 47.5%.

B2: bsG1-huCD3-FEALxCD30-T105-FEAR (bispecific antibody, human IgG1, kappa, lambda)
heavy 1: not shown
light 1: not shown
heavy 2: not shown
light 2: B1 light 2 with P8Q, T20S, G30N, F36Y, K45E, V46A, H92N, T93S, G100S, N107K
notes: Bispecific IgG1 made by controlled Fab-arm exchange; also called bsIgG1-huCD3-FEALxCD30-T105-FEAR
In the case of B2, the “EC50 (read off the curve)” value [1] is reported as about 0.3 µg/mL, the “EC50 (read off the curve)” value [2] is reported as about 0.3 µg/mL and the “EC50 (read off the curve)” value [3] is reported as about 0.4 µg/mL. For the same binder, the “T-cell mediated cytotoxicity of Karpas-299 cells, IC50 average” value [4] was 0.042 µg/mL and the “T-cell mediated cytotoxicity of Karpas-299 cells, maximum lysis average” value [4] was 52.6%.

B3: bsG1-huCD3-FEALxb12-FEAR (bispecific antibody)
heavy 1: not shown
light 1: not shown
heavy 2: QVQLVQSGAEVKKPGASVKVSCQASGYRFSNFVIHWVRQAPGQRFEWMGWINPYNGNKEFSAKFQDRVTFTADTSANTAYMELRSLRSADTAVYYCARVGPYSWDDSPQDNYYMDVWGKGTTVIVSSASTKGPSVFPLAPSSKSTSGGTAALGCLVKDYFPEPVTVSWNSGALTSGVHTFPAVLQSSGLYSLSSVVTVPSSSLGTQTYICNVNHKPSNTKVDKRVEPKSCDKTHTCPPCPAPEFEGGPSVFLFPPKPKDTLMISRTPEVTCVVVAVSHEDPEVKFNWYVDGVEVHNAKTKPREEQYNSTYRVVSVLTVLHQDWLNGKEYKCKVSNKALPAPIEKTISKAKGQPREPQVYTLPPSREEMTKNQVSLTCLVKGFYPSDIAVEWESNGQPENNYKTTPPVLDSDGSFFLYSRLTVDKSRWQQGNVFSCSVMHEALHNHYTQKSLSLSPG
light 2: EIVLTQSPGTLSLSPGERATFSCRSSHSIRSRRVAWYQHKPGQAPRLVIHGVSNRASGISDRFSGSGSGTDFTLTITRVEPEDFALYYCQVYGASSYTFGQGTKLERKRTVAAPSVFIFPPSDEQLKSGTASVVCLLNNFYPREAKVQWKVDNALQSGNSQESVTEQDSKDSTYSLSSTLTLSKADYEKHKVYACEVTHQGLSSPVTKSFNRGEC
notes: Monovalent CD3 control; The b12 arm is HIV-1 gp120 specific
With B3 the “EC50 (read off the curve)” value [5] was about 0.5 µg/mL.
